Assay results reported in publication PMC5095702 (Biochemistry, 2016).

Biological target: the molecule itself
Test: SEC

B1: KdnB from Shewanella oneidensis (enzyme, S. oneidensis, UniProt Q8EEB0 1-356, looked up)
chain: MSFKNFKVVEKMIFGRGSFVQLDDVLAAQRKADDDFVVFLVDDVHQGKPLEARIPVKAQDLLIWVNVDEEPSTIQIDALTEQVQAFNGKLPVSVVGLGGGSTMDVAKAVSLMLTNPGGSAMYQGWDLIKKPAVHHIGIPTISGTGAEASRTAVLCGPVRKLGLNSDYTVFDQIIMDSELIDGVETDQWFYTGMDCYIHCVESLEGTFLNEFSKAYAEKAMDLCRQVYLEDHPEKDDKLMMASFMGGMSIAYSQVGACHAVSYGLSYILGYHHGIGNCIAFDVLEEFYPEGVAEFRLMMKKHNITLPKNICKDLPDETIAKMVAVTKSMGPLWANVYGPTWEEKVTDEMLTALFRRI
stoichiometry N: 2
